Laboratory results as given in patent US6046310, “FAS ligand fusion proteins and their uses” (Protein Design Labs., Inc., dated 2000).

B1: HuABL364 Ig-FasL5 (other)
heavy (part 1 of 2): EVQLLESGGGLVQPGGSLRLSCAASGFTFSDYYMYWVRQAPEKRLEWVAYISNGGGSSHYVDSVKGRFTISRDNAKNTLYLQMNSLRAEDTALYHCARGMDYGAWFAYWGQGTLVTVSS
heavy (part 2 of 2): GTGHPSPPPEKKELRKVAHLTGKSNSRSMPLEWEDTYGIVLLSGVKYKKGGLVINETGLYFVYSKVYFRGQSCNNLPLSHKVYMRNSKYPQDLVMMEGKMMSYCTTGQMWARSSYLGAVFNLTSADHLYVNVSELSLVNFEESQTFFGLYKL
light: DIVMTQSPLSLPVTPGEPASISCRSSQSIVHSNGNTYLEWYLQKPGQSPQLLISKVSNRFSGVPDRFSGSGSGTDFTLKISRVEAEDVGVYYCFQGSHVPFTFGQGTKLEIK
B2: HuABL364 Ig-FasL5 H148S (other)
heavy (part 1 of 2): EVQLLESGGGLVQPGGSLRLSCAASGFTFSDYYMYWVRQAPEKRLEWVAYISNGGGSSHYVDSVKGRFTISRDNAKNTLYLQMNSLRAEDTALYHCARGMDYGAWFAYWGQGTLVTVSS
heavy (part 2 of 2): GTGHPSPPPEKKELRKVASLTGKSNSRSMPLEWEDTYGIVLLSGVKYKKGGLVINETGLYFVYSKVYFRGQSCNNLPLSHKVYMRNSKYPQDLVMMEGKMMSYCTTGQMWARSSYLGAVFNLTSADHLYVNVSELSLVNFEESQTFFGLYKL
light: DIVMTQSPLSLPVTPGEPASISCRSSQSIVHSNGNTYLEWYLQKPGQSPQLLISKVSNRFSGVPDRFSGSGSGTDFTLKISRVEAEDVGVYYCFQGSHVPFTFGQGTKLEIK
B3: HuABL364 Ig-FasL5 Y244A (other)
heavy (part 1 of 2): EVQLLESGGGLVQPGGSLRLSCAASGFTFSDYYMYWVRQAPEKRLEWVAYISNGGGSSHYVDSVKGRFTISRDNAKNTLYLQMNSLRAEDTALYHCARGMDYGAWFAYWGQGTLVTVSS
heavy (part 2 of 2): GTGHPSPPPEKKELRKVAHLTGKSNSRSMPLEWEDTYGIVLLSGVKYKKGGLVINETGLYFVYSKVYFRGQSCNNLPLSHKVYMRNSKYPQDLVMMEGKMMSYCTTGQMWARSSALGAVFNLTSADHLYVNVSELSLVNFEESQTFFGLYKL
light: DIVMTQSPLSLPVTPGEPASISCRSSQSIVHSNGNTYLEWYLQKPGQSPQLLISKVSNRFSGVPDRFSGSGSGTDFTLKISRVEAEDVGVYYCFQGSHVPFTFGQGTKLEIK
B4: HuABL364 Ig-FasL5 Y189A (other)
heavy (part 1 of 2): EVQLLESGGGLVQPGGSLRLSCAASGFTFSDYYMYWVRQAPEKRLEWVAYISNGGGSSHYVDSVKGRFTISRDNAKNTLYLQMNSLRAEDTALYHCARGMDYGAWFAYWGQGTLVTVSS
heavy (part 2 of 2): GTGHPSPPPEKKELRKVAHLTGKSNSRSMPLEWEDTYGIVLLSGVKYKKGGLVINETGLAFVYSKVYFRGQSCNNLPLSHKVYMRNSKYPQDLVMMEGKMMSYCTTGQMWARSSYLGAVFNLTSADHLYVNVSELSLVNFEESQTFFGLYKL
light: DIVMTQSPLSLPVTPGEPASISCRSSQSIVHSNGNTYLEWYLQKPGQSPQLLISKVSNRFSGVPDRFSGSGSGTDFTLKISRVEAEDVGVYYCFQGSHVPFTFGQGTKLEIK
B5: HuABL364 Ig-FasL5 Y192A (other)
heavy (part 1 of 2): EVQLLESGGGLVQPGGSLRLSCAASGFTFSDYYMYWVRQAPEKRLEWVAYISNGGGSSHYVDSVKGRFTISRDNAKNTLYLQMNSLRAEDTALYHCARGMDYGAWFAYWGQGTLVTVSS
heavy (part 2 of 2): GTGHPSPPPEKKELRKVAHLTGKSNSRSMPLEWEDTYGIVLLSGVKYKKGGLVINETGLYFVASKVYFRGQSCNNLPLSHKVYMRNSKYPQDLVMMEGKMMSYCTTGQMWARSSYLGAVFNLTSADHLYVNVSELSLVNFEESQTFFGLYKL
light: DIVMTQSPLSLPVTPGEPASISCRSSQSIVHSNGNTYLEWYLQKPGQSPQLLISKVSNRFSGVPDRFSGSGSGTDFTLKISRVEAEDVGVYYCFQGSHVPFTFGQGTKLEIK
B6: HuABL364 Ig-FasL5 L170A (other)
heavy (part 1 of 2): EVQLLESGGGLVQPGGSLRLSCAASGFTFSDYYMYWVRQAPEKRLEWVAYISNGGGSSHYVDSVKGRFTISRDNAKNTLYLQMNSLRAEDTALYHCARGMDYGAWFAYWGQGTLVTVSS
heavy (part 2 of 2): GTGHPSPPPEKKELRKVAHLTGKSNSRSMPLEWEDTYGIVALSGVKYKKGGLVINETGLYFVYSKVYFRGQSCNNLPLSHKVYMRNSKYPQDLVMMEGKMMSYCTTGQMWARSSYLGAVFNLTSADHLYVNVSELSLVNFEESQTFFGLYKL
light: DIVMTQSPLSLPVTPGEPASISCRSSQSIVHSNGNTYLEWYLQKPGQSPQLLISKVSNRFSGVPDRFSGSGSGTDFTLKISRVEAEDVGVYYCFQGSHVPFTFGQGTKLEIK
B7: HuABL364 Ig-FasL5 I168A (other)
heavy (part 1 of 2): EVQLLESGGGLVQPGGSLRLSCAASGFTFSDYYMYWVRQAPEKRLEWVAYISNGGGSSHYVDSVKGRFTISRDNAKNTLYLQMNSLRAEDTALYHCARGMDYGAWFAYWGQGTLVTVSS
heavy (part 2 of 2): GTGHPSPPPEKKELRKVAHLTGKSNSRSMPLEWEDTYGAVLLSGVKYKKGGLVINETGLYFVYSKVYFRGQSCNNLPLSHKVYMRNSKYPQDLVMMEGKMMSYCTTGQMWARSSYLGAVFNLTSADHLYVNVSELSLVNFEESQTFFGLYKL
light: DIVMTQSPLSLPVTPGEPASISCRSSQSIVHSNGNTYLEWYLQKPGQSPQLLISKVSNRFSGVPDRFSGSGSGTDFTLKISRVEAEDVGVYYCFQGSHVPFTFGQGTKLEIK
B8: HuABL364 Ig-FasL5 V248A (other)
heavy (part 1 of 2): EVQLLESGGGLVQPGGSLRLSCAASGFTFSDYYMYWVRQAPEKRLEWVAYISNGGGSSHYVDSVKGRFTISRDNAKNTLYLQMNSLRAEDTALYHCARGMDYGAWFAYWGQGTLVTVSS
heavy (part 2 of 2): GTGHPSPPPEKKELRKVAHLTGKSNSRSMPLEWEDTYGIVLLSGVKYKKGGLVINETGLYFVYSKVYFRGQSCNNLPLSHKVYMRNSKYPQDLVMMEGKMMSYCTTGQMWARSSYLGAAFNLTSADHLYVNVSELSLVNFEESQTFFGLYKL
light: DIVMTQSPLSLPVTPGEPASISCRSSQSIVHSNGNTYLEWYLQKPGQSPQLLISKVSNRFSGVPDRFSGSGSGTDFTLKISRVEAEDVGVYYCFQGSHVPFTFGQGTKLEIK
B9: HuABL364 Ig-FasL5 Y232A (other)
heavy (part 1 of 2): EVQLLESGGGLVQPGGSLRLSCAASGFTFSDYYMYWVRQAPEKRLEWVAYISNGGGSSHYVDSVKGRFTISRDNAKNTLYLQMNSLRAEDTALYHCARGMDYGAWFAYWGQGTLVTVSS
heavy (part 2 of 2): GTGHPSPPPEKKELRKVAHLTGKSNSRSMPLEWEDTYGIVLLSGVKYKKGGLVINETGLYFVYSKVYFRGQSCNNLPLSHKVYMRNSKYPQDLVMMEGKMMSACTTGQMWARSSYLGAVFNLTSADHLYVNVSELSLVNFEESQTFFGLYKL
light: DIVMTQSPLSLPVTPGEPASISCRSSQSIVHSNGNTYLEWYLQKPGQSPQLLISKVSNRFSGVPDRFSGSGSGTDFTLKISRVEAEDVGVYYCFQGSHVPFTFGQGTKLEIK
B10: HuABL364 Ig-FasL5 M229A (other)
heavy (part 1 of 2): EVQLLESGGGLVQPGGSLRLSCAASGFTFSDYYMYWVRQAPEKRLEWVAYISNGGGSSHYVDSVKGRFTISRDNAKNTLYLQMNSLRAEDTALYHCARGMDYGAWFAYWGQGTLVTVSS
heavy (part 2 of 2): GTGHPSPPPEKKELRKVAHLTGKSNSRSMPLEWEDTYGIVLLSGVKYKKGGLVINETGLYFVYSKVYFRGQSCNNLPLSHKVYMRNSKYPQDLVMMEGKAMSYCTTGQMWARSSYLGAVFNLTSADHLYVNVSELSLVNFEESQTFFGLYKL
light: DIVMTQSPLSLPVTPGEPASISCRSSQSIVHSNGNTYLEWYLQKPGQSPQLLISKVSNRFSGVPDRFSGSGSGTDFTLKISRVEAEDVGVYYCFQGSHVPFTFGQGTKLEIK
B11: HuABL364 antibody (antibody, V domains shown)
VH: EVQLLESGGGLVQPGGSLRLSCAASGFTFSDYYMYWVRQAPEKRLEWVAYISNGGGSSHYVDSVKGRFTISRDNAKNTLYLQMNSLRAEDTALYHCARGMDYGAWFAYWGQGTLVTVSS
VL: DIVMTQSPLSLPVTPGEPASISCRSSQSIVHSNGNTYLEWYLQKPGQSPQLLISKVSNRFSGVPDRFSGSGSGTDFTLKISRVEAEDVGVYYCFQGSHVPFTFGQGTKLEIK

Each binder was assayed against T1, Fas on the cell surface of human cell lines (MOLT-4, CESS, T47D) (human, UniProt P25445) (assay: cell-based or functional assay).
With B1 the “% apoptotic cells, CESS” value was 88 % apoptotic cells and the “% apoptotic cells, T47D” value was 91 % apoptotic cells.
With B2 the “% apoptotic cells, CESS” value was 26 % apoptotic cells and the “% apoptotic cells, T47D” value was 15 % apoptotic cells.
B3 was tested, and the “% apoptotic cells, CESS” value was 24 % apoptotic cells and the “% apoptotic cells, T47D” value was 16 % apoptotic cells.
B4 was tested, and the “% apoptotic cells, CESS” value was 24 % apoptotic cells and the “% apoptotic cells, T47D” value was 11 % apoptotic cells.
In the case of B5, the “% apoptotic cells, CESS” value is reported as 25 % apoptotic cells and the “% apoptotic cells, T47D” value is reported as 10 % apoptotic cells.
With B6 the “% apoptotic cells, CESS” value was 87 % apoptotic cells and the “% apoptotic cells, T47D” value was 98 % apoptotic cells.
With B7 the “% apoptotic cells, CESS” value was 81 % apoptotic cells and the “% apoptotic cells, T47D” value was 91 % apoptotic cells.
With B8 the “% apoptotic cells, CESS” value was 87 % apoptotic cells and the “% apoptotic cells, T47D” value was 95 % apoptotic cells.
With B9 the “% apoptotic cells, CESS” value was 32 % apoptotic cells and the “% apoptotic cells, T47D” value was 88 % apoptotic cells.
In the case of B10, the “% apoptotic cells, CESS” value is reported as 90 % apoptotic cells and the “% apoptotic cells, T47D” value is reported as 95 % apoptotic cells.

Each binder was assayed against T1, Fas on the cell surface of human cell … (assay: flow cytometry on MOLT-4 cells (express Fas but not the antigen for HuABL364), anti-human IgG FITC).
Protocol: MOLT-4, a human T lymphocyte line that expresses Fas on the cell surface (B. Trauth et al., *Science*, 245:301, 1989, incorporated herein by reference) but not the antigen for HuABL364, was stained by incubation with protein G-purified HuABL364 lg-FasL followed by incubation with an anti-human IgG FITC reagent (Jackson Immunoresearch, #715-096-151). Positive staining by HuABL364 Ig-FasL was detected by flow cytometry, compared to negative staining with the HuABL364 antibody.
B11: no binding.
